Assay results as given in patent CN108690134A (UNIV XIAMEN; YANG SHENG TANG CO LTD, dated 2018).

Biological target: T1, HBsAg (乙肝表面抗原) (Hepatitis B virus)
T1 chain: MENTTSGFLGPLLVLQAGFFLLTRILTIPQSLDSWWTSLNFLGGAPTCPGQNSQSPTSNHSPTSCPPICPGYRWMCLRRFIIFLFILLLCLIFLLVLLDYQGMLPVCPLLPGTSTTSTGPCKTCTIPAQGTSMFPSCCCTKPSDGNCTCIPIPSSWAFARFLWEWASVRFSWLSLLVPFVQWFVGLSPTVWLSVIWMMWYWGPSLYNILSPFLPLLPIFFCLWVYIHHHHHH
Assay: SPR, Biacore 3000, HBsAg immobilised on CM5 chip (2400 RU), antibody as analyte from 100 nM in 2-fold dilutions

B1: 人源化抗体M3D (antibody, V domains shown)
VH: QVQLQESGPGLVKPSGTLSLTCAVSGVSISSPYDWTWVRQPPGKGLEWIGRIHGNGGSTSYNPSLKSRVTISVDKSKNQFSLKLSSVTAADTAVYYCVRDETWGQGTLVTVSS
VL: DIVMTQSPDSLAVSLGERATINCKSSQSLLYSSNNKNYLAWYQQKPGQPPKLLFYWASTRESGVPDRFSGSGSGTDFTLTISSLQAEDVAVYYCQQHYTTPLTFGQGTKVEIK
notes: also called humanized M3-23
Kd: 1.12 nM

B2: 人源化抗体M1D (antibody, V domains shown)
VH: QVQLQESGPGLVKPSETLSLTCTVSGGSITSNFWSWIRQPPGKGLEWIGYISGSGTYTDYNPSLKSRVTISVDTSKNQFSLKLSSVTAADTAVYYCARSHDYGSNDYAFDFWGQGTTVTVSS
VL: DIQMTQSPSSLSASVGDRVTITCRATQDISSSLNWYQQKPGKAPKLLIYYANRLQSGVPSRFSGSGSGTDFTLTISSLQPEDFATYYCQQYHSLPLTFGGGTKVEIK
notes: also called humanized M1-23
Kd: 1.06 nM
